Test results from patent publication US20200157147A1 (SEOUL NATIONAL UNIVERSITY HOSPITAL, published 2020).

Molecular target: T1, hResistin (human, UniProt Q9HD89 19-108)
T1 construct: Immobilised on the SPR chip; also called human resistin; resistin protein
T1 sequence (looked up): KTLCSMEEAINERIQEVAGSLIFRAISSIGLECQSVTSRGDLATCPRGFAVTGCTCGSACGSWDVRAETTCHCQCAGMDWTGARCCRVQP
Test: SPR (Reichert SR7500DC), hResistin immobilised on CMDH chip, peptide injected in PBS
Description: To measure the direct binding of hResistin and VS_peptide (SEQ ID NO: 2), SPR analysis was performed using Reichert SR7500DC system. hResistin (1.8 ug) and hPCSK9 (1.6 ug) proteins were immobilized on the carboxymethyl dextran hydrogel surface sensor chip (CMDH chip, Cat#: 13206066) by using a 10 mM sodium acetate immobilization buffer (pH 5.5 or pH 4.5). VS_peptide (SEQ ID NO: 2) diluted in PBS buffer (pH 7.4) in a dose-dependent manner was injected into the sensor chip (flow rate: 30 μl/min, association time: 3 min) to measure the response unit (RU) for binding strength. After the measurement of RU values for binding strength, PBS buffer (pH 7.4) was allowed to flow over the sensor chip at a rate of 30 μl/min for 3 minutes to measure dissociation RU values of VS_peptide (SEQ ID NO: 2) from hResistin immobilized on the chip. The dissociation equilibrium constant (KD) of VS_peptide (SEQ ID NO: 2) for hResistin was derived using Scrubber2 software (KD=Kd/Kₐ, Kₐ=association rate, Kd=dissociation rate).

B1: VS_peptide (SEQ ID NO: 2) (peptide)
peptide: PPPPGPPPPPVSTSSGSDES
notes: Synthesised by Peptron, Korea; also called peptide VS; Existing peptide
B1 gave a Kd of 3.7 mM.
